B1: BBSome complex member BBS2 (Homo sapiens), Q9BXC9 (parent)
chain: MLLPVFTLKLRHKISPRMVAIGRYDGTHPCLAAATQTGKVFIHNPHTRNQHVSASRVFQSPLESDVSLLSINQAVSCLTAGVLNPELGYDALLVGTQTNLLAYDVYNNSDLFYREVADGANAIVLGTLGDISSPLAIIGGNCALQGFNHEGSDLFWTVTGDNVNSLALCDFDGDGKKELLVGSEDFDIRVFKEDEIVAEMTETEIVTSLCPMYGSRFGYALSNGTVGVYDKTSRYWRIKSKNHAMSIHAFDLNSDGVNELITGWSNGKVDARSDRTGEVIFKDNFSSAIAGVVEGDYRMDGHIQLICCSVDGEIRGYLPGTAEMRGNLMDTSAEQDLIRELSQKKQNLLLELRNYEENAKAELASPLNEADGHRGIIPANTRLHTTLSVSLGNETQTAHTELRISTSNDTIIRAVLIFAEGIFTGESHVVHPSIHNLSSSICIPIVPPKDVPVDLHLKAFVGYRSSTQFHVFESTRQLPRFSMYALTSLDPASEPISYVNFTIAERAQRVVVWLGQNFLLPEDTHIQNAPFQVCFTSLRNGGHLHIKIKLSGEITINTDDIDLAGDIIQSMASFFAIEDLQVEADFPVYFEELRKVLVKVDEYHSVHQKLSADMADHSNLIRSLLVGAEDARLMRDMKTMKSRYMELYDLNRDLLNGYKIRCNNHTELLGNLKAVNQAIQRAGRLRVGKPKNQVITACRDAIRSNNINTLFKIMRVGTASS
partner: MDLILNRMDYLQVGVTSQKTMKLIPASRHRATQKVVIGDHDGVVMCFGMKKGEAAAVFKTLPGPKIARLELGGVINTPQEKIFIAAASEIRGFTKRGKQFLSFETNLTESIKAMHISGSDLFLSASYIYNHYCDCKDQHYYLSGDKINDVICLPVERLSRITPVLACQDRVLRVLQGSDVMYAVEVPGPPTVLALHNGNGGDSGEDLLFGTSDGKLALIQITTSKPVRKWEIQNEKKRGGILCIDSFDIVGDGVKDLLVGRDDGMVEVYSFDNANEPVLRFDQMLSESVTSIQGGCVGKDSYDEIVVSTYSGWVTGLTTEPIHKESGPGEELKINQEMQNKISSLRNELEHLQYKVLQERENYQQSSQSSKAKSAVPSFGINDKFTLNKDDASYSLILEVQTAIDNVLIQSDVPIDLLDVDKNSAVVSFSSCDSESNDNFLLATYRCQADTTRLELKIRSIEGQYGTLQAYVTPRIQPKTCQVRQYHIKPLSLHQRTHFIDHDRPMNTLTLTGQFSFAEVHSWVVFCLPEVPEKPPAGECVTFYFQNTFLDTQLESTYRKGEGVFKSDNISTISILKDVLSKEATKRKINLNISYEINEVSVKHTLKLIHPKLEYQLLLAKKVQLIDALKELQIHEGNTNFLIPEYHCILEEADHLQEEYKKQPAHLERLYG

Variants of: B1
Conditions: with BBS7, Q8IWZ6-2

Effect of a mutation on the interaction, with no effect:
H428K
V429A
V429E
V429K
V430A
V430E
V430K
H431A
H431E
H431K
P432A
P432E
P432K
S433A
S433E
S433K
I434A
I434E
I434K
H435A
H435E
H435K
N436A
N436E
N436K
L437A
L437E
S438A
S438E
S438K
S439A
S439E
S439K
S440K
I441A
I441K
C442A
C442E
C442K
I443A
I443E
P444A
P444E
P444K
I445K
V446A
V446E
V446K
P447A
P448A
P448E
P448K
K449A
K449E
D450A
D450E
V451A
V451E
V451K
P452A
P452E
P452K
V453A
V453E
D454A
D454E
D454K
L455A
L455K
H456A
H456E
H456K
L457A
K458A
K458E
A459E
F460A
F460E
F460K
V461E
V461K
G462A
G462E
G462K
Y463E
Y463K
R464A
R464E
R464K
S465A
S465E
S465K
S466A
S466K
T467A
T467E
T467K
Q468A
Q468E
Q468K
F469A
F469E
F469K
H470A
H470E
H470K
V471A
V471E
V471K
F472E
F472K
E473A
E473K
S474A
S474E
S474K
T475A
T475E
T475K
R476A
R476E
R476K
Q477A
Q477E
Q477K
L478E
P479K
R480A
R480E
R480K
F481A
S482A
S482K
M483A

Effect of a mutation on the interaction, disrupting interaction strength:
L437K
S440A
S440E
S440F
I441E
I441R
I443K
I445A
I445E
P447E
P447K
D450K
V453K
L455E
L457C
L457E
L457K
A459K
V461A
V461M
Y463A
R464T
S466E
Q468L
F469M
F469S
F472A
F472L
L478A
L478K
P479A
P479E
F481E
F481K
S482E

From IntAct's records for PubMed 29039417
